Assay results taken from US20240059789A1 (Janssen / Centocor, published 2024).
Positions count from the first letter of the chain named. One block for each binder: values may come before it.

What was measured:
Test in all cases: cell-based or functional assay
[1] = molecular target: T1, Human PSMA on prostate cancer cell lines (C4-2B, 22RV1) (human, UniProt Q04609 1-750)
[2] = molecular target: T1, Human PSMA on prostate cancer cell …; remark: listed apart in the source
[3] = molecular target: Human CD3 on T cells / Jurkat cells (human, UniProt P07766 23-207)
[4] = molecular target: T1, Human PSMA on prostate cancer cell …; remark: listed apart in the source

Chain of Human CD3 on T cells / Jurkat cells (P07766 23-207 limits assumed): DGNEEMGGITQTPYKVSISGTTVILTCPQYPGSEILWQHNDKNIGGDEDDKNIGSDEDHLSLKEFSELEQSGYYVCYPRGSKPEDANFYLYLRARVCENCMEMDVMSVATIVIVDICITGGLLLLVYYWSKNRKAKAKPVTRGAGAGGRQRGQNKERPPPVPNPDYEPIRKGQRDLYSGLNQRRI
T1 sequence (Q04609 whole entry): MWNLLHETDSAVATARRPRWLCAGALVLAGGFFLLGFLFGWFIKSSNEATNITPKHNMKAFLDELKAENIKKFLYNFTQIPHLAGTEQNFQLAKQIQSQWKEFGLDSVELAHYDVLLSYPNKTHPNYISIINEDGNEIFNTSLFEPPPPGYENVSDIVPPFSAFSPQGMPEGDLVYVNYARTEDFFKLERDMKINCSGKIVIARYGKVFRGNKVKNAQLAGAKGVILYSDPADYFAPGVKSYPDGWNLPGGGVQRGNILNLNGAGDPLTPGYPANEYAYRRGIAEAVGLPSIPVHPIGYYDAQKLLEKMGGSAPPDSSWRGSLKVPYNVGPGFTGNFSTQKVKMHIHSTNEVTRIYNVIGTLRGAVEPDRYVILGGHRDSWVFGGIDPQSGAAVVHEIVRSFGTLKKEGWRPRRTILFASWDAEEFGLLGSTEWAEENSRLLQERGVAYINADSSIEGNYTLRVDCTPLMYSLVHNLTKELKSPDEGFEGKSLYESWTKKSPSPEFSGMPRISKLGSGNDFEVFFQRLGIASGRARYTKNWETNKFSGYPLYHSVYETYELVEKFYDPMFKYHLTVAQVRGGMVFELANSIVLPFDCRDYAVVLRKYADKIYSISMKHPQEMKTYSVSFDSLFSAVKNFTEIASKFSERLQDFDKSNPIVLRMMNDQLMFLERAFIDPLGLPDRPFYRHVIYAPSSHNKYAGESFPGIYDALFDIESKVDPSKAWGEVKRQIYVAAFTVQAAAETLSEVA

B3: PS3B919 (bispecific antibody, human IgG1, lambda, L234A L235A)
heavy 1: QVQLQQSGPRLVRPSQTLSLTCAISGDSVFNNNAAWSWIRQSPSRGLEWLGRTYYRSKWLYDYAVSVKSRITVNPDTSRNQFTLQLNSVTPEDTALYYCARGYSSSFDYWGQGTLVTVSSASTKGPSVFPLAPSSKSTSGGTAALGCLVKDYFPEPVTVSWNSGALTSGVHTFPAVLQSSGLYSLSSVVTVPSSSLGTQTYICNVNHKPSNTKVDKKVEPKSCDKTHTCPPCPAPEAAGGPSVFLFPPKPKDTLMISRTPEVTCVVVSVSHEDPEVKFNWYVDGVEVHNAKTKPREEQYNSTYRVVSVLTVLHQDWLNGKEYKCKVSNKALPAPIEKTISKAKGQPREPQVYTLPPSREEMTKNQVSLTCLVKGFYPSDIAVEWESNGQPENNYKTTPPVLDSDGSFLLYSKLTVDKSRWQQGNVFSCSVMHEALHNHYTQKSLSLSPG
light 1: QSALTQPASVSGSPGQSITISCTGTSSNIGTYKFVSWYQQHPDKAPKVLLYEVSKRPSGVSSRFSGSKSGNTASLTISGLQAEDQADYHCVSYAGSGTLLFGGGTKLTVLGQPKAAPSVTLFPPSSEELQANKATLVCLISDFYPGAVTVAWKADSSPVKAGVETTTPSKQSNNKYAASSYLSLTPEQWKSHRSYSCQVTHEGSTVEKTVAPTECS
heavy 2: EVQLVESGGGLVQPGGSLRLSCAASGFTFSSYAMSWVRQAPGKGLEWVSAISGGIGSTYYADSVKGRFTISRDNSKNTLWLQMNSLRAEDTAVYYCAKDGVGATPYYFDYWGQGTLVTVSSASTKGPSVFPLAPSSKSTSGGTAALGCLVKDYFPEPVTVSWNSGALTSGVHTFPAVLQSSGLYSLSSVVTVPSSSLGTQTYICNVNHKPSNTKVDKKVEPKSCDKTHTCPPCPAPEAAGGPSVFLFPPKPKDTLMISRTPEVTCVVVSVSHEDPEVKFNWYVDGVEVHNAKTKPREEQYNSTYRVVSVLTVLHQDWLNGKEYKCKVSNKALPAPIEKTISKAKGQPREPQVYTLPPSREEMTKNQVSLTCLVKGFYPSDIAVEWESNGQPENNYKTTPPVLDSDGSFFLYSRLTVDKSRWQQGNVFSCSVMHEALHNHYTQKSLSLSPG
light 2: QSVLTQPPSVSAAPGQKVTISCSGSSSNIGNNYVSWYQQLPGTAPKLLIYDNNKRPSGIPDRFSGSKSGTSATLGITGLQTGDEADYYCGTWDSSLSAYVFGTGTKVTVLGQPKAAPSVTLFPPSSEELQANKATLVCLISDFYPGAVTVAWKADSSPVKAGVETTTPSKQSNNKYAASSYLSLTPEQWKSHRSYSCQVTHEGSTVEKTVAPTECS
Tumor killing EC50 [M] (C4-2B + PAN-T cells, 72 h, flow cytometry) [4]: 2.1e-10 M
T cell activation EC50 [M] (CD25+ T cells, C4-2B co-culture, 72 h) [3]: 1.87e-10 M

B5: PS3B920 (bispecific antibody, human IgG1, lambda, L234A L235A)
heavy 1: B3 heavy 1
light 1: B3 light 1
heavy 2: B3 heavy 2 with I55S, W80Y, T91S
light 2: B3 light 2
Tumor killing EC50 [M] (C4-2B + PAN-T cells, 72 h, flow cytometry) [4]: 3.2e-09 M
T cell activation EC50 [M] (CD25+ T cells, C4-2B co-culture, 72 h) [3]: 1.77e-09 M

B6: PS3B912 (bispecific antibody, human IgG1, lambda, L234A L235A)
heavy 1: B3 heavy 1
light 1: B3 light 1
heavy 2: B3 heavy 2 with A23T, T28I, I55Y, S57A, T58P, S63T, W80Y, Y110D, T115I
light 2: B3 light 2 with Y50F
Tumor killing EC50 [M] (C4-2B + PAN-T cells, 72 h, flow cytometry) [4]: 6.51e-11 M
T cell activation EC50 [M] (CD25+ T cells, C4-2B co-culture, 72 h) [3]: 4.73e-11 M

B7: PS3B922 (bispecific antibody, human IgG1, lambda, L234A L235A)
heavy 1: B3 heavy 1
light 1: B3 light 1
heavy 2: B3 heavy 2 with I55S, W80Y, T91S
light 2: B3 light 2 with N31I, Y99V, T103G, V107L
Tumor killing EC50 [M] (C4-2B + PAN-T cells, 72 h, flow cytometry) [4]: 7.79e-11 M
T cell activation EC50 [M] (CD25+ T cells, C4-2B co-culture, 72 h) [3]: 5.85e-11 M

Continued, in another order:

% cytolysis at 120 hours (C4-2B, xCelligence, donor #1) at 80 pM [1]: 0%
% cytolysis at 120 hours (C4-2B, xCelligence, donor #1) at 0.4 nM [1]: 100%
% cytolysis at 120 hours (C4-2B, xCelligence, donor #1) at 2 nM [1]: 100%
% cytolysis at 120 hours (C4-2B, xCelligence, donor #1) at 10 nM [1]: 100%
% cytolysis at 120 hours (C4-2B, xCelligence, donor #1) at 50 nM [1]: 100%
% cytolysis at 120 hours (C4-2B, xCelligence, donor #2) at 80 pM [1]: 0%
% cytolysis at 120 hours (C4-2B, xCelligence, donor #2) at 0.4 nM [1]: 24%
% cytolysis at 120 hours (C4-2B, xCelligence, donor #2) at 2 nM [1]: 100%
% cytolysis at 120 hours (C4-2B, xCelligence, donor #2) at 10 nM [1]: 100%
% cytolysis at 120 hours (C4-2B, xCelligence, donor #2) at 50 nM [1]: 100%
% cytolysis at 120 hours (C4-2B, xCelligence, donor #3) at 80 pM [1]: 0%
% cytolysis at 120 hours (C4-2B, xCelligence, donor #3) at 0.4 nM [1]: 100%
% cytolysis at 120 hours (C4-2B, xCelligence, donor #3) at 2 nM [1]: 100%
% cytolysis at 120 hours (C4-2B, xCelligence, donor #3) at 10 nM [1]: 100%
% cytolysis at 120 hours (C4-2B, xCelligence, donor #3) at 50 nM [1]: 100%
B1: PS3B1356 (bispecific antibody, human IgG1, lambda, L234A L235A)
heavy 1: QVQLQQSGPGLVKPSQTLSLTCAISGDSVFNNNAAWSWIRQSPSRGLEWLGRTYYRSKWLYDYAVSVKSRITINPDTSKNQFSLQLNSVTPEDTAVYYCARGYSSSFDYWGQGTLVTVSSASTKGPSVFPLAPSSKSTSGGTAALGCLVKDYFPEPVTVSWNSGALTSGVHTFPAVLQSSGLYSLSSVVTVPSSSLGTQTYICNVNHKPSNTKVDKKVEPKSCDKTHTCPPCPAPEAAGGPSVFLFPPKPKDTLMISRTPEVTCVVVSVSHEDPEVKFNWYVDGVEVHNAKTKPREEQYNSTYRVVSVLTVLHQDWLNGKEYKCKVSNKALPAPIEKTISKAKGQPREPQVYTLPPSREEMTKNQVSLTCLVKGFYPSDIAVEWESNGQPENNYKTTPPVLDSDGSFLLYSKLTVDKSRWQQGNVFSCSVMHEALHNHYTQKSLSLSPGK
light 1: B3 light 1 with D43G, L49M, L50I, S62N, Q85E, H89Y
heavy 2: EVQLVESGGGLVQPGGSLRLSCAASGFTFSSYAMSWVRQAPGKGLEWVSAISGGIGSTYYADSVKGRFTISRDNSKNTLWLQMNSLRAEDTAVYYCAKDGVGATPYYFDYWGQGTLVTVSSASTKGPSVFPLAPSSKSTSGGTAALGCLVKDYFPEPVTVSWNSGALTSGVHTFPAVLQSSGLYSLSSVVTVPSSSLGTQTYICNVNHKPSNTKVDKKVEPKSCDKTHTCPPCPAPEAAGGPSVFLFPPKPKDTLMISRTPEVTCVVVSVSHEDPEVKFNWYVDGVEVHNAKTKPREEQYNSTYRVVSVLTVLHQDWLNGKEYKCKVSNKALPAPIEKTISKAKGQPREPQVYTLPPSREEMTKNQVSLTCLVKGFYPSDIAVEWESNGQPENNYKTTPPVLDSDGSFFLYSRLTVDKSRWQQGNVFSCSVMHEALHNHYTQKSLSLSPGK
light 2: B3 light 2
Cytotoxicity (C4-2B cells, 3:1 E:T ratio, 5 Day) at 1.1 nM [2]: 55%
Cytotoxicity (C4-2B cells, 3:1 E:T ratio, 5 Day) at 3.3 nM [2]: 80%
Cytotoxicity (C4-2B cells, 3:1 E:T ratio, 5 Day) at 10 nM [2]: 83%
Cytotoxicity (C4-2B cells, 3:1 E:T ratio, 5 Day) at 30 nM [2]: 88%

T cell activation EC50 [M] (CD25+ T cells, C4-2B co-culture, 72 h) [3]: 4.48e-12 M
B2: PS3B917 (bispecific antibody, human IgG1, lambda, L234A L235A)
heavy 1: B3 heavy 1
light 1: B3 light 1
heavy 2: EVQLVESGGGLVKPGGSLRLSCAASGFTFSRYNMNWVRQAPGKGLEWVSSINSNSRYIYYADSVKGRFTISRDSAKNSLYLQMNSLRAEDTAVYYCAKTMGDYYYYYGMDVWGQGTTVTVSSASTKGPSVFPLAPSSKSTSGGTAALGCLVKDYFPEPVTVSWNSGALTSGVHTFPAVLQSSGLYSLSSVVTVPSSSLGTQTYICNVNHKPSNTKVDKKVEPKSCDKTHTCPPCPAPEAAGGPSVFLFPPKPKDTLMISRTPEVTCVVVSVSHEDPEVKFNWYVDGVEVHNAKTKPREEQYNSTYRVVSVLTVLHQDWLNGKEYKCKVSNKALPAPIEKTISKAKGQPREPQVYTLPPSREEMTKNQVSLTCLVKGFYPSDIAVEWESNGQPENNYKTTPPVLDSDGSFFLYSRLTVDKSRWQQGNVFSCSVMHEALHNHYTQKSLSLSPG
light 2: QSVLTQPPSVSGAPGQRVTISCTGSSFNLGAGYDVHWYQQVPGTVPKLLIYDNSNRPSGVPDRFSGSKSGTSASLAITGLQAEDETVYYCQSYDSSLSGVVFGGGTKLTVLGQPKAAPSVTLFPPSSEELQANKATLVCLISDFYPGAVTVAWKADSSPVKAGVETTTPSKQSNNKYAASSYLSLTPEQWKSHRSYSCQVTHEGSTVEKTVAPTECS

T cell activation EC50 [M] (CD25+ T cells, C4-2B co-culture, 72 h) [3]: 2.11e-11 M
B4: PS3B921 (bispecific antibody, human IgG1, lambda, L234A L235A)
heavy 1: B3 heavy 1
light 1: B3 light 1
heavy 2: B3 heavy 2
light 2: B3 light 2 with N31I, Y99V, T103G, V107L
Tumor killing EC50 [M] (C4-2B + PAN-T cells, 72 h, flow cytometry) [4]: 3.11e-11 M

T cell activation EC50 [M] (CD25+ T cells, C4-2B co-culture, 72 h) [3]: 2.4e-12 M
B8: PS3B930 (bispecific antibody, human IgG1, kappa, lambda, L234A L235A)
heavy 1: EVQLVESGGGLVKPGGSLRLSCAASGFTFSRYNMNWVRQAPGKGLEWVSSISTSSNYIYYADSVKGRFTFSRDNAKNSLDLQMSGLRAEDTAIYYCTRGWGPFDYWGQGTLVTVSSASTKGPSVFPLAPSSKSTSGGTAALGCLVKDYFPEPVTVSWNSGALTSGVHTFPAVLQSSGLYSLSSVVTVPSSSLGTQTYICNVNHKPSNTKVDKKVEPKSCDKTHTCPPCPAPEAAGGPSVFLFPPKPKDTLMISRTPEVTCVVVSVSHEDPEVKFNWYVDGVEVHNAKTKPREEQYNSTYRVVSVLTVLHQDWLNGKEYKCKVSNKALPAPIEKTISKAKGQPREPQVYTLPPSREEMTKNQVSLTCLVKGFYPSDIAVEWESNGQPENNYKTTPPVLDSDGSFLLYSKLTVDKSRWQQGNVFSCSVMHEALHNHYTQKSLSLSP
light 1: DIQMTQSPSSLSASVGDRVTITCRARQSIGTAIHWYQQKPGKAPKLLIKYASESISGVPSRFSGSGSGTDFTLTISSLQPEDFATYYCQQSGSWPYTFGQGTKLEIKRTVAAPSVFIFPPSDEQLKSGTASVVCLLNNFYPREAKVQWKVDNALQSGNSQESVTEQDSKDSTYSLSSTLTLSKADYEKHKVYACEVTHQGLSSPVTKSFNRGEC
heavy 2: B2 heavy 2
light 2: B2 light 2
